# Reference: PMC8602864, “The Molecular Assembly State of Drp1 Controls its Association With the Mitochondrial Recruitment Receptors Mff and MIEF1/2” (Frontiers in Cell and Developmental Biology, 2021)
# Biological target: the molecule itself
# Assay: cross-linking; in vivo: intact 293T cells (WT; MIEF1/2/Mff-/-; overexpressing MIEF1-V5, MIEF2-V5 or Myc-Mff; or Drp1-/- transfected with untagged Drp1 for 18 h) with 1 mM DSS in PBS with Ca2+/Mg2+, time course or 3 h, room temperature, quenched with 50 mM Tris pH 7.5; reducing SDS-PAGE and Western blot
protein,measurement,value
"untagged Drp1-4A (natural protein, human, UniProt O00429 1-736, looked up, human Drp1 isoform 1 with the four residues 401GPRP404 mutated to AAAA, untagged; Made by site-directed mutagenesis on untagged Drp1-WT; Copies: ~280 kDa cross-linked product said to correspond to tetramers; also called Drp1-4A mutant) MEALIPVINKLQDVFNTVGADIIQLPQIVVVGTQSSGKSSVLESLVGRDLLPRGTGIVTRRPLILQLVHVSQEDKRKTTGEENGVEAEEWGKFLHTKNKLYTDFDEIRQEIENETERISGNNKGVSPEPIHLKIFSPNVVNLTLVDLPGMTKVPVGDQPKDIELQIRELILRFISNPNSIILAVTAANTDMATSEALKISREVDPDGRRTLAVITKLDLMDAGTDAMDVLMGRVIPVKLGIIGVVNRSQLDINNKKSVTDSIRDEYAFLQKKYPSLANRNGTKYLARTLNRLLMHHIRDCLPELKTRINVLAAQYQSLLNSYGEPVDDKSATLLQLITKFATEYCNTIEGTAKYIETSELCGGARICYIFHETFGRTLESVDPLGGLNTIDILTAIRNATAAAAALFVPEVSFELLVKRQIKRLEEPSLRCVELVHEEMQRIIQHCSNYSTQELLRFPKLHDAIVEVVTCLLRKRLPVTNEMVHNLVAIELAYINTKHPDFADACGLMNNNIEEQRRNRLARELPSAVSRDKSSKVPSALAPASQEPSPAASAEADGKLIQDSRRETKNVASGGGGVGDGVQEPTTGNWRGMLKTSKAEELLAEEKSKPIPIMPASPQKGHAVNLLDVPVPVARKLSAREQRDCEVIERLIKSYFLIVRKNIQDSVPKAVMHFLVNHVKDTLQSELVGQLYKSSLLDDLLTESEDMAQRRKEAADMLKALQGASQIIAEIRETHLW",stoichiometry N,4
